Experimental data reported in patent publication US20160136231A1.

Biological target: mouse ChemR23, PathHunter β-Arrestin cell line (mouse) (UniProt P97468)
Experiment: cell-based or functional assay

Sequence of mouse ChemR23, PathHunter β-Arrestin cell line (mouse) (P97468 whole entry): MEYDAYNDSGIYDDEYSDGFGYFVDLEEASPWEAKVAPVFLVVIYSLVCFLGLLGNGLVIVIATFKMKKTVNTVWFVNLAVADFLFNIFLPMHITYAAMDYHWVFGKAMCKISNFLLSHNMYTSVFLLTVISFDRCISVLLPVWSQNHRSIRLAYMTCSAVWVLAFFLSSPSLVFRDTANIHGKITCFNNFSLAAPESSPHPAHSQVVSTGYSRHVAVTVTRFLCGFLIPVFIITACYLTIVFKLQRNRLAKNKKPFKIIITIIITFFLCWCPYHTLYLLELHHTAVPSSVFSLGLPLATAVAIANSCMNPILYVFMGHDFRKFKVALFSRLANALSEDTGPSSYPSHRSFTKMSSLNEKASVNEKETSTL

“hrChemerin (from UniProt Q99969 21-157) (ligand)” was tested, and the EC50, Arrestin, Agonist (RC50, uM) was 0.00154 µM.
